B1: Beta-secretase 1 (Homo sapiens), P56817 (parent)
chain: MAQALPWLLLWMGAGVLPAHGTQHGIRLPLRSGLGGAPLGLRLPRETDEEPEEPGRRGSFVEMVDNLRGKSGQGYYVEMTVGSPPQTLNILVDTGSSNFAVGAAPHPFLHRYYQRQLSSTYRDLRKGVYVPYTQGKWEGELGTDLVSIPHGPNVTVRANIAAITESDKFFINGSNWEGILGLAYAEIARPDDSLEPFFDSLVKQTHVPNLFSLQLCGAGFPLNQSEVLASVGGSMIIGGIDHSLYTGSLWYTPIRREWYYEVIIVRVEINGQDLKMDCKEYNYDKSIVDSGTTNLRLPKKVFEAAVKSIKAASSTEKFPDGFWLGEQLVCWQAGTTPWNIFPVISLYLMGEVTNQSFRITILPQQYLRPVEDVATSQDDCYKFAISQSSTGTVMGAVIMEGFYVVFDRARKRIGFAVSACHVHDEFRTAAVEGPFVTLDMEDCGYNIPQTDESTLMTIAYVMAAICALFMLPLCLMVCQWRCLRCLRQQHDDFADDISLLK
partner: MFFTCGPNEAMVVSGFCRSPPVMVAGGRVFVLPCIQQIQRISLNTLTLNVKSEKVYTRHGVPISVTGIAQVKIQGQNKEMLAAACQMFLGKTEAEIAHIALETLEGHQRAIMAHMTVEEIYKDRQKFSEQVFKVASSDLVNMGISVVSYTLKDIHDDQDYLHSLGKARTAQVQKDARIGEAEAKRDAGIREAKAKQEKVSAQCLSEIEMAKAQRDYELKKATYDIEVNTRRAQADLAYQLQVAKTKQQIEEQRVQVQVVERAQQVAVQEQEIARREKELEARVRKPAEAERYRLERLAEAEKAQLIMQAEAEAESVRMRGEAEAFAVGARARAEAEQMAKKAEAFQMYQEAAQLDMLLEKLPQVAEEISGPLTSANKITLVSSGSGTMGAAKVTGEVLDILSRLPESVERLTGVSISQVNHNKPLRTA

Variants of: B1
Details: with flot1_rat Flot1, Q9Z1E1

Row | effect of a mutation on the interaction | Variant
1 | disrupting interaction | L499A;L500A
